Data set [1] deals with T1, BmSTPR (FMBP-1 STPR domain) (Bombyx mori, UniProt Q5FBS0 99-193).
T1 sequence: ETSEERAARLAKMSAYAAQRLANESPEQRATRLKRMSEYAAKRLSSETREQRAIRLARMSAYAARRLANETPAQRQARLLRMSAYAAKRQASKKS
Nature of the data set: ITC.

For data set [2], the target named is T2, BmSTPR with R1 deleted (R2-R4) (Bombyx mori, UniProt Q5FBS0 122-193).
T2 sequence: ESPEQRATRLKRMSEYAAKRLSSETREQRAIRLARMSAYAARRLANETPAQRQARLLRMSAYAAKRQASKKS
Nature of the data set: ITC.

The target of data set [3] is T1, BmSTPR (FMBP-1 STPR domain). As to the kind of experiment: X-ray crystal structure.

B1: (auac/gtat)4 (dsDNA)
DNA 1: AUACAUACAUACAUAC
DNA 2: GTATGTATGTATGTAT
modifications: t2 of each unit to (deoxy)uridylate
One may read the Kd as a measure of binding affinity in units of concentration. The low end stands for a tighter complex, the high end for a looser complex. With B1, the Kd in data set [1] is 183 nM.

B2: (gcca)3 (dsDNA)
DNA 1: GCCAGCCAGCCA
DNA 2: TGGCTGGCTGGC
Take B2: binding in data set [1] was characterised by a dissociation constant (Kd) of 44600 ± 14300 nM.

B3: 20-bp (+290) (dsDNA)
DNA 1: AGTATTTACATAGATTCATC
DNA 2: GATGAATCTATGTAAATACT
B3 yielded a Kd in data set [2] of 547 nM.

B4: 18-bp DNA, (atac)4 plus one terminal nt each side (dsDNA)
DNA 1: CATACATACATACATACA
DNA 2: TGTATGTATGTATGTATG
Turning to B4, the binding result in data set [3] is given as “binds”.
